Columns and labels:
CD20 (human) [1] = molecular target: CD20 (human) (UniProt P11836); test: cell-based or functional assay
CD20 (human) [2] = molecular target: CD20 (human) (UniProt P11836); test: flow cytometry on Daudi cells, PE-anti-Fab
CD20 (human) [3] = molecular target: CD20 (human) (UniProt P11836); test: Scatchard analysis, radio-iodinated sample on Raji cells; apparent association constant
[4] = molecular target: gp41 of HIV-1 6794 (HIV-1 6794); test: cell-based or functional assay
[5] = molecular target: gp41 of HIV-1IIIB (HIV-1IIIB) (UniProt P03377); test: cell-based or functional assay

Row | EC50, inhibition of proliferation of Daudi cells (4-d MTS assay) (CD20 (human) [1]) | EC50, inhibition of proliferation of Raji cells (4-d MTS assay) (CD20 (human) [1]) | EC50, inhibition of proliferation of Ramos cells (4-d MTS assay) (CD20 (human) [1]) | greater fluorescence intensity than veltuzumab (PE-anti-Fab) (CD20 (human) [2]) | Ka (CD20 (human) [3]) | Substance | EC50, viable cell counting assay, Ramos, 3 days (CD20 (human) [1]) | inhibition of cell proliferation at 0.5 nmol/L, viable cell counting, Raji and Ramos (CD20 (human) [1]) | EC50 estimated, neutralization of HIV-1 6794 in PBMCs, 50TCID50 [4] | EC50 estimated, neutralization of HIV-1 6794 in PBMCs, 100TCID50 [4] | EC50 estimated, neutralization of HIV-1IIIB in Jurkat T cells, 50TCID50 [5] | EC50 estimated, neutralization of HIV-1IIIB in Jurkat T cells, 100TCID50 [5]
1 | 0.15 nM | 0.064 nM | 0.15 nM | 40 to 50% | 3.9e+08 M⁻¹ | Hex-hA20 (hexavalent anti-CD20 antibody, six Fabs with one Fc) | 0.17 nM | > 50% | – | – | – | –
2 | – | – | – | – | – | T20 HIV fusion inhibitor (enfuvirtide, FUZEON) (peptide) | – | – | 9 nM | 9 nM | 9 nM | –
3 | – | – | – | – | – | hLL2-(T20)4 | – | – | < 0.2 nM | < 0.2 nM | < 0.2 nM | 0.1 nM

Reference: patent publication US20130280250A1
